Test results as given in PMC8423358.

Target: DPP9, short isoform (DPP9S), co-expressed with CARD8 for cryo-EM, Q86TI2
Experiment: cryo-EM structure
Conditions: remark: other sources report otherwise

B1: DPP9, short isoform (DPP9S), co-expressed with CARD8 for cryo-EM, Q86TI2-1 1-863 (enzyme)
chain: MATTGTPTADRGDAAATDDPAARFQVQKHSWDGLRSIIHGSRKYSGLIVNKAPHDFQFVQKTDESGPHSHRLYYLGMPYGSRENSLLYSEIPKKVRKEALLLLSWKQMLDHFQATPHHGVYSREEELLRERKRLGVFGITSYDFHSESGLFLFQASNSLFHCRDGGKNGFMVSPMKPLEIKTQCSGPRMDPKICPADPAFFSFINNSDLWVANIETGEERRLTFCHQGLSNVLDDPKSAGVATFVIQEEFDRFTGYWWCPTASWEGSEGLKTLRILYEEVDESEVEVIHVPSPALEERKTDSYRYPRTGSKNPKIALKLAEFQTDSQGKIVSTQEKELVQPFSSLFPKVEYIARAGWTRDGKYAWAMFLDRPQQWLQLVLLPPALFIPSTENEEQRLASARAVPRNVQPYVVYEEVTNVWINVHDIFYPFPQSEGEDELCFLRANECKTGFCHLYKVTAVLKSQGYDWSEPFSPGEDEFKCPIKEEIALTSGEWEVLARHGSKIWVNEETKLVYFQGTKDTPLEHHLYVVSYEAAGEIVRLTTPGFSHSCSMSQNFDMFVSHYSSVSTPPCVHVYKLSGPDDDPLHKQPRFWASMMEAASCPPDYVPPEIFHFHTRSDVRLYGMIYKPHALQPGKKHPTVLFVYGGPQVQLVNNSFKGIKYLRLNTLASLGYAVVVIDGRGSCQRGLRFEGALKNQMGQVEIEDQVEGLQFVAEKYGFIDLSRVAIHGWSYGGFLSLMGLIHKPQVFKVAIAGAPVTVWMAYDTGYTERYMDVPENNQHGYEAGSVALHVEKLPNEPNRLLILHGFLDENVHFFHTNFLVSQLIRAGKPYQLQIYPNERHSIRCPESGEHYEVTLLHFLQEYL
B1 showed a stoichiometry N of 2.
